Reference: US20170166631A1 (published 2017)
Like-named read-outs stand apart in the source and are kept apart here.

Assays:
Assay in all cases: ELISA
[1] = biological target: T1, HD49 (huntingtin exon 1 protein with 49 polyQ repeats after cleavage of the GST tag; aggregation reaction) (human, UniProt P42858 1-88)
T1 chain: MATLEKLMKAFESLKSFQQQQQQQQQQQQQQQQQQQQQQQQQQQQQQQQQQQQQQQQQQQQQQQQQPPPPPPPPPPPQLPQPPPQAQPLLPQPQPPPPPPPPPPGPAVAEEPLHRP

[2] = biological target: T2, GST-HttExon1Q21 (recombinant huntingtin exon 1 protein with 21 polyQ repeats fused to an N-terminal GST tag) (;human, UniProt P08515 1-218 = GST; P42858 1-88)
[3] = biological target: T1, HD49 (huntingtin exon 1 protein with 49 …)
[4] = biological target: T2, GST-HttExon1Q21 (recombinant huntingtin …); remark: listed apart in the source
Target sequence in this assay (P08515 1-218, tags or fused parts left off): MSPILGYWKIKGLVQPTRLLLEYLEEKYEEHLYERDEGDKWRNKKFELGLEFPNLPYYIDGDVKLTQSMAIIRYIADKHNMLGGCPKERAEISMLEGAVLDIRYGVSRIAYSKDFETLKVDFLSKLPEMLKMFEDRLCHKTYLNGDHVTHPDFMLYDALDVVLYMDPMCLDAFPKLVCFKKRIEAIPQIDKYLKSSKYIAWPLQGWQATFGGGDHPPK

[5] = biological target: T1, HD49 (huntingtin exon 1 protein with 49 …)
[6] = biological target: T3, HD21 (huntingtin exon 1 protein with 21 polyQ repeats after cleavage of the GST tag; aggregation reaction) (human, UniProt P42858 1-88)
T3 chain: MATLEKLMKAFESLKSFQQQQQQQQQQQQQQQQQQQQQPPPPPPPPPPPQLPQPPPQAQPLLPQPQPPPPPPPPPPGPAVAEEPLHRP

[7] = biological target: T2, GST-HttExon1Q21 (recombinant huntingtin …); remark: listed apart in the source
Target sequence in this assay (P08515 1-218, tags or fused parts left off): as the sequence (P08515 1-218, tags or fused parts left off) above

[8] = biological target: T1, HD49 (huntingtin exon 1 protein with 49 …)
[9] = biological target: T3, HD21 (huntingtin exon 1 protein with 21 …)
[10] = biological target: T2, GST-HttExon1Q21 (recombinant huntingtin …); remark: listed apart in the source
[11] = biological target: T3, HD21 (huntingtin exon 1 protein with 21 …)
[12] = biological target: T1, HD49 (huntingtin exon 1 protein with 49 …)
[13] = biological target: T3, HD21 (huntingtin exon 1 protein with 21 …)
[14] = biological target: T2, GST-HttExon1Q21 (recombinant huntingtin …); remark: listed apart in the source
[15] = biological target: T3, HD21 (huntingtin exon 1 protein with 21 …)
[16] = biological target: T2, GST-HttExon1Q21 (recombinant huntingtin …); remark: listed apart in the source
[17] = biological target: T4, BSA-coupled synthetic peptide of the P-rich domain sequence of huntingtin exon 1 (coupled to BSA)
T4 peptide: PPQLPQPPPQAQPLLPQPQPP

Row | Binder | EC50 [3] [nM] | EC50 [4] [nM] | EC50 [5] [nM] | EC50 [6] [nM] | EC50 [7] [nM] | EC50 [11] [nM] | further results
1 | NI-302.12H2 (antibody, V domains shown) VH: EVQLVQSGGGLVQPGGSLRLSCEASGFTFSNYAMGWVRQAPGKGLEWVSVISGTGGSTYYADSVKGRFTISRDNSMNTLYLQMNSPRADDTAVYYCAKDLRKISGPLYYYGMDVWGQGTTVTVSS VL: EIVLTQSPGTLSLSPGERATLSCRASQSVSSGYLAWYQQKPGQAPRLLIYGASTRATGIPDRFSGSGSGTDFTLTISRLEPEDFAVYYCQHYGASSYTFGQGTKLEIK | 0.04 | 0.04 | – | – | – | – | EC50 [1]: 0.04 nM; EC50 [2]: 0.04 nM
2 | NI-302.8F1 (antibody, V domains shown) VH: EVQLVESGGGLVKPGGSLTISCAASGFTFSNAWMNWVRQAPGKGLEWVGHIRTQAEGGTSDYAAPVKGRFTISRDDSKNTLYLQMNSLKTEDTAVYYCIPPPYYYYYGLDVWGQGTTVTVSS VL: QSALTQPASVSGSPGQSITISCTGASSDVGTYDLVSWYQQHPGKAPKLIIYEVNKRPSGVSYRFSASKSANTASLTISGLQAEDEAEYYCCSYAGYSTVFGGGTKLTVL | – | – | 1.9 | 1.6 | 0.8 | – | –
3 | NI-302.74C11 (antibody, V domains shown) VH: EVQLVQSGTEVQKPGASVKVSCKASGYSFTGYFLHWVRQAPGQGLEWMGWINPNSGDTNYAEKFRGRIIMTRDTSVSTAHMELSSLRFDDTALYYCTREAPDPGAETDVWGQGTTVTVSS VL: QSVLTQPPSVSVSPGQTARITCSGDAVPKQYIYWYQQKPGQAPILVIYKDTQRPSGIPERFSGSNSGTTVTLTITGVQADDEGDYYCQSADSSATWVFGGGTKLTVL | 0.5 | 0.5 | – | – | – | 0.5 | EC50 [8]: 0.5 nM; EC50 [9]: 0.5 nM; EC50 [10]: 0.5 nM
4 | NI-302.55D8 (antibody, V domains shown) VH: QVQLVQSGSEVKKPGASVKVSCKASGYTFTDYYIHWVRQAPGQGLEWMGRINPNNGGTNYAQNFQGWVTMTRDTSISTAYMELSRLRSDDTAVYYCARVGGELLREGGYHYYMDVWGKGTTVTVSS VL: QSVLTQPPSVSGAPGQRVTISCTGNSSNIGAGYDVHWYQQLPGTAPKLLIFDNTNRPSGVPDRFSGSKSGTSASLAITGLQAEDEANYHCQSYDNSLSGSWVFGGGTKLTVL | – | – | 1.7 | 1.2 | 0.2 | – | EC50 [12]: 1.7 nM; EC50 [13]: 1.2 nM; EC50 [14]: ~0.2 nM
5 | NI-302.6N9 (antibody, V domains shown) VH: EVQLVESGGDLVQPGGSLRLSCVVSGFTFSSYAMTWVRQAPGKGLAWVSTISATGGSTFYTDSVRGRFTISRDNSKNTLYLQMNSLRTDDTAIYYCVKDLFGVDTSYYGMDVWGQGTTVTVSS VL: EIVLTQSPGTLSLSPGERATLSCRPSQSVSGRYVAWYQQKPGQAPRLLFYAASNRAIGIPDRFSGSGSGTDFTLTISRLEPEDFAVYYCQHYGASSYTFGPGTKVDIK | 0.19 | 0.24 | – | – | – | 0.21 | EC50 [8]: 0.19 nM; EC50 [9]: 0.21 nM; EC50 [10]: 0.24 nM
6 | NI-302.4A6 (antibody, V domains shown) VH: EVQLVESGGGLVQPGGSLRLSCAASGFTFSAYAMSWVRQAPGKGLEWVSTISGSGGSTYYADSVKGRFSISRDNSKNTLYLQMNSLRAEDTAVYFCAKVTTELYGANSYYYYMDVWGKGTTVTVSS VL: EIVLTQSPGTLSLSPGERATLSCRASQSVVSRYLAWYQQKPGQAPRLLIYGASSRATGIPDRFSGSGSGTDFTLTISRLEPEDFAMYYCQLYGNSQTFGQGTKVEIK | 3 | 3 | – | – | – | – | EC50 [1]: 3 nM; EC50 [2]: 3 nM
7 | NI-302.8M1 (antibody, V domains shown) VH: EVQLVQSGAEVKKPGASVKVSCKASGYTFTIYYMHWVRQAPGQGLEWMGGISPSGAHTMYAQNFQGRVTVTRDTSTSTVYMELSSLRSEDTAVYYCARGSTVTNYRPFDYWGQGTLVTVSS VL: DIQMTQSPSSLSASVGDRVTITCRASQDISNYLAWYQQKPGKVPKLLIFAASTLQSGVPSRFGGSGSGTDFTLTISSLQPEDVATYYCQNYNSGPPPFGPGTKVDIK | 0.003 | 0.002 | – | – | – | – | EC50 [1]: 0.003 nM; EC50 [2]: 0.002 nM
8 | NI-302.7D8 (antibody, V domains shown) VH: QVQLVQSGSELKKPGASVKVSCKASGYNFNNYAINWLRQAPGQGLEWMGWINTITGHPTYAQGFKGRFVFSLDTSVSTAYLQISSLKPEDTAVYYCARTYSNYGEFDYWGQGTLVTVSS VL: QSALTQPASVSGSRGQSITISCTGTSSDVGSYNLVSWYQQYPGKAPKLIIHEGSERPSGVSNRFSGSKSGNTASLTISGLQAEDEADYYCCSYAGTTTFVLFGGGTKLTVL | – | 51 | – | – | – | > 100 | EC50 [15]: > 100 nM; EC50 [16]: 51 nM
9 | NI-302.15F9 (antibody, V domains shown) VH: EVQLVESGGGLVTPGGSLRLSCEASGFLFKNSSMNWVRQTPGKGLEWVSSIDTSATNYKYYADSVKGRFTISRDDATNSLYLQMNSLRADDTATYYCARGYYTPRDFDYWGQGTLVTVSS VL: DVVMTQSPQTLSVSLGQAASISCRSSQSLLYRDNNTYLNWFHQRPGQSPRRLIYRASDRDSGVPDRFSGGGSGTDFTLKISGVEAEDVGTYYCMQGTHWPRTFGQGTKVEIK | 6 | 11 | – | – | – | 35 | –
10 | NI-302.31F11 (antibody, V domains shown) VH: EVQLVESGGGLIQPGGSLRLSCAASGFTVSSTYMSWVRQAPGKGLECVSVIFSGADTYYADSVKGRFTVSRDNSKNTLFLQMNSLRVEDTATYYCVRHYYGSDLPSDFWGQGTLVTVSS VL: DVVMTQSPLSLPVAPGEPASISCRSSQSLLYSNGYNYLDWYLQKPGKPPQLLVYLGSDRASGVPDRFSGSGSGKDFTLNISRVEAEDVGVYYCMQGLQSPWTFGQGTKLEIK | 0.6 | 0.9 | – | – | – | 4.3 | EC50 [8]: 0.6 nM; EC50 [9]: 4.3 nM; EC50 [10]: 0.9 nM; EC50 [17]: 0.5 nM
11 | NI-302.52C9 (antibody, V domains shown) VH: EVQLVQSGGGLVQPGGSLRLSCAGSGFTVSDTYMSWVRQAPGKGLEWVSGIHAGGETYYADSVKGRFTISRDNSKNTLYLQMNRLTPEDTAVFYCARHYYGNDDDTDYWGQGTLVTVSS VL: DVVMTQSPLSLPVTPGEPASISCRSSQSLLHSNGYNYLDWYVQKPGQSPQLLIYLGSTRASGVPDRFSGSGSGTDFTLKISRVEAEDVGVYYCLQAQQIPWTFGQGTKVEIK | – | – | 30 | 28 | 10.2 | – | –
12 | NI-302.18A1 (antibody, V domains shown) VH: QLQLQESGPGLVKPSEALSLTCTVSGGSITTDYYYWGWIRQSPGKGLEWVGTIYFGGATYYNPSLRNRVSISVDTSNTRLSLRLISLSAADTAVYYCARVGYLDRSGLLVGQGTLVTVSS VL: EIVLTQSPLSVPVTPGEPASISCRSSQSLLHNNGYNYLDWYLKKPGQSPQLLIYLGSTRASGVPDRFSASGSGTDFTLEISRVEAEDVGVYYCMQALQTPPTFGRGTKVEIK | – | – | 0.03 | 0.02 | 0.04 | – | –
